According to article PMC10148159, “Visualizing the coordination of apurinic/apyrimidinic endonuclease (APE1) and DNA polymerase β during base excision repair”:

How the values were obtained:
APE1 [1] = target: T1, APE1 (Homo sapiens, UniProt P27695 1-318); assay: single-molecule TIRF; 2.5 mM EDTA; mean lifetimes T2 4.3 s, T3 30.9 s; 50 mM Hepes pH 7.4, 150 mM NaCl, 0.1 mg/ml BSA, 0.8% glucose, 2.5 mM EDTA, ~10 mM Trolox, catalase 0.04 mg/ml, glucose oxidase 1 mg/ml; room temperature; protein 0.1 nM (binary) or 1.5 nM each (ternary); settings: protein: recombinant; tags: Cy3 NHS ester dye (about 2.1-2.4 labels per protein); label: 5'-biotin on strand 1 (immobilized); blunt outer ends; 1-nt gap opposite G of template
[2] = target: T2, DNA polymerase beta (Pol β) (Homo sapiens, UniProt P06746 1-335); assay: single-molecule TIRF; 2.5 mM EDTA; mean lifetime T2 19.8 s; 50 mM Hepes pH 7.4, 150 mM NaCl, 0.1 mg/ml BSA, 0.8% glucose, 2.5 mM EDTA, ~10 mM Trolox, catalase 0.04 mg/ml, glucose oxidase 1 mg/ml; room temperature; protei
APE1 [3] = target: T1, APE1; assay: single-molecule TIRF; 2.5 mM EDTA; mean lifetime T2 12.4 s; 50 mM Hepes pH 7.4, 150 mM NaCl, 0.1 mg/ml BSA, 0.8% glucose, 2.5 mM EDTA, ~10 mM Trolox, catalase 0.04 mg/ml, glucose oxidase 1 mg/ml; room temperature; protein 0.1 nM (binary) or 1.5 nM each (ternary); settings: protein: recombinant; tags: Cy3 NHS ester dye (about 2.1-2.4 labels per protein); label: 5'-biotin on strand 1 (immobilized); blunt outer ends; nicked
[4] = target: T2, DNA polymerase beta (Pol β); assay: single-molecule TIRF; 2.5 mM EDTA; mean lifetimes T2 7.4 s, T3 33.7 s; 50 mM Hepes pH 7.4, 150 mM NaCl, 0.1 mg/ml BSA, 0.8% glucose, 2.5 mM EDTA, ~10 mM Trolox, catalase 0.04 mg/ml, glucose oxidase 1 mg/ml; room temperature; protei
APE1 [5] = target: T1, APE1; assay: single-molecule TIRF; 2.5 mM EDTA; mean lifetime T2 22.8 s; 50 mM Hepes pH 7.4, 150 mM NaCl, 0.1 mg/ml BSA, 0.8% glucose, 2.5 mM EDTA, ~10 mM Trolox, catalase 0.04 mg/ml, glucose oxidase 1 mg/ml; room temperature; protein 0.1 nM (binary) or 1.5 nM each (ternary); settings: protein: recombinant; tags: Cy3 NHS ester dye (about 2.1-2.4 labels per protein); label: 5'-biotin on strand 1 (immobilized); blunt

B1: 1-nt gap 25-mer (dsDNA)
DNA 1: TGTGTGGAATACAGTGAGCGCAACG
DNA 2: CGTTGCGCTCA
DNA 3: TGTATTCCACACA
modifications: 5'-phosphate on 13-mer
binding result (APE1 [1]): binds
binding result [2]: binds

B2: 3' nick 25-mer (dsDNA)
DNA 1: TGTGTGGAATACAGTGAGCGCAACG
DNA 2: CGTTGCGCTCAC
DNA 3: TGTATTCCACACA
modifications: 5'-phosphate on 13-mer; 3'-OH on 12-mer
binding result (APE1 [3]): binds
binding result [4]: binds

B3: undamaged DNA 25-mer (dsDNA)
DNA 1: TGTGTGGAATACAGTGAGCGCAACG
DNA 2: CGTTGCGCTCACTGTATTCCACACA
binding result (APE1 [5]): binds
